These are literature values, as cited in publication PMC3345106.

The target in this series is Cys34 (UniProt position 58, QYLQQCPFEDH). As to conditions: HSA thiol in earlier reports, compared by the authors with their FA-free value.

For the substance “Human serum albumin (HSA) (Homo sapiens)”, the pKa was roughly 8.
